Experimental data reported in patent US20060121042A1 (AstraZeneca / MedImmune, published 2006).
Positions count from the first letter of the chain named.

Assays:
mEph A2 = mEph A2 (mouse, UniProt Q03145); experiment: ELISA
r murine EphA4 [1] = target: T1, r murine EphA4 (mouse, UniProt Q03137); experiment: activity ELISA, Fab on coated antigen
T1 construct: recombinant Fc fusion (R&D Systems); also called rmuEphA4-Fc; mEphA4
Experimental: (§1) More precisely, Nunc Maxisorp plates were coated with the following rEphA proteins: rhuEphAl-Fc, rmuEphA2-Fc, rmuEphA3-Fc, rmuEphA4-Fc, rratEphA5-Fc, rmuEphA6-Fc, rmuEphA7-Fc, rEphA8; all at 0.5 μg/well (all R&D Systems) rhuEphA2-Fc; 0.5 μg/well, and rhuEphA4-His; 0.1 μg/well (both produced at MedImmune, Inc.). Plates were blocked with 3% BSA+0.1% Tween20 for 2 h. […] Incubation with a goat anti-human kappa horseradish peroxydase (HRP) conjugate then followed. HRP activity was detected with TMB substrate and the reaction quenched with 0.2 M H₂SO₄. Plates were read at 450 nm. Data was analyzed by normalizing Fab concentrations to the corresponding activity data (see FIGS. 10B-10H).

r murine EphA7 [2] = target: T2, r murine EphA7 (mouse, UniProt Q61772); experiment: activity ELISA, Fab on coated antigen
T2 construct: recombinant Fc fusion (R&D Systems); also called rmuEphA7-Fc; mEphA7
T2 sequence (receptor-Fc fusion, looked up): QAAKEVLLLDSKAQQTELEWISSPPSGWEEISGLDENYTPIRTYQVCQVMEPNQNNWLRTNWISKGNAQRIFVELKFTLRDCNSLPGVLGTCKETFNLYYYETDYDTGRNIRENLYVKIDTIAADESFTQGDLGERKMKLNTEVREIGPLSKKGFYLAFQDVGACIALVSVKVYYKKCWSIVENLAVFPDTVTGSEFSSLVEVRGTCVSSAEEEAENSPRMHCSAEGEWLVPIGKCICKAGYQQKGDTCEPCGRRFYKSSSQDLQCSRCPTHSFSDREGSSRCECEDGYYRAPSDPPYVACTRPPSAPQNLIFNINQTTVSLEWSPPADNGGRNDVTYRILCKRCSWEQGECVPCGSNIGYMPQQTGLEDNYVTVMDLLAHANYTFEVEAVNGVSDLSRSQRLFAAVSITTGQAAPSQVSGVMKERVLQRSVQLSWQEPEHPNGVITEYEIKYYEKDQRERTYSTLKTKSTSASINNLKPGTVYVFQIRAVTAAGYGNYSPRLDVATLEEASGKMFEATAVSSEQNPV
Experimental: as §1

r murine EphA8 [3] = target: T3, r murine EphA8 (mouse, UniProt O09127); experiment: activity ELISA, Fab on coated antigen
T3 construct: recombinant (rEphA8, R&D Systems); also called rEphA8
T3 sequence (receptor, looked up): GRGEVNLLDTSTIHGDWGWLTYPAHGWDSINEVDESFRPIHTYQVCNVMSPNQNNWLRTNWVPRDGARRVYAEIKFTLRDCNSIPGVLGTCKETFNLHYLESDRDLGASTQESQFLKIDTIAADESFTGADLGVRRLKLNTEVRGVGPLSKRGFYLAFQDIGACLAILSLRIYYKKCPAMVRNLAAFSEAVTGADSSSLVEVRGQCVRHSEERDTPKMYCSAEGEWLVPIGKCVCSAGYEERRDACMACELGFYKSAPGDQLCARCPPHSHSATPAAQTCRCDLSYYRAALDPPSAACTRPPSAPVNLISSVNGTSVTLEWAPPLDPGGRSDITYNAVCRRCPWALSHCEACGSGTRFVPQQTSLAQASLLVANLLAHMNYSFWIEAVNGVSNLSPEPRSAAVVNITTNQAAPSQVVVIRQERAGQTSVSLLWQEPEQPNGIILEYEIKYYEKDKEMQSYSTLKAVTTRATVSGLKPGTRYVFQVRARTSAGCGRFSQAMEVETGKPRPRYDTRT
Experimental: as §1

[4] = target: T4, human EphA4 (construct not given) (human, UniProt P54764 20-547, limits assumed); experiment: capture ELISA, 25 ng/well sheep anti-human Fd
T4 construct: also called EphA4 receptor

r murine EphA4 [5] = target: T1, r murine EphA4; experiment: activity ELISA, IgG on coated antigen
Experimental: (§2) Secondary screening of IgG constructs of affinity optimized combinatorial variants with additional EphA receptors: With purified IgG constructs of the nine combinatorial variants, additional secondary screening assays were performed using the Activity ELISA (see above) and recombinant EphA receptor proteins. More precisely, Nunc Maxisorp plates were coated with the following rEphA proteins: rhuEphAl-Fc; 0.5 μg/well, rmuEphA2-Fc; 0.5 μg/well, rmuEphA3-Fc: 0.1 μg/well, rmuEphA4-Fc; 0.1 μg/well, rratEphA5-Fc; 0.5 μg/well, rmuEphA6-Fc; 0.5 μg/well, rmuEphA7-Fc; 0.1 μg/well, rEphA8; 0.2 μg/well (all R&D Systems), rhuEphA2-Fc; 0.5 μg/well, and rhuEphA4-His; 0.1 μg/well (both produced at MedImmune, Inc.). Plates were blocked with 3% BSA+0.1% Tween20 for 2 h. […] Incubation with a goat anti-human kappa horseradish peroxydase (HRP) conjugate then followed. HRP activity was detected with TMB substrate and the reaction quenched with 0.2 M H₂SO₄. Plates were read at 450 nm. Data was analyzed by normalizing Fab concentrations to the corresponding activity data (see FIGS. 12A-12J and 14).

r murine EphA7 [6] = target: T2, r murine EphA7; experiment: activity ELISA, IgG on coated antigen
Experimental: as §2

mEphA4 = target: T5, mEphA4 (mouse, UniProt Q03137); experiment: ELISA, receptor coated on the plate, purified IgG, anti-human kappa-HRP
T5 construct: part of an Fc fusion; also called rmuEphA4-Fc
Experimental: as §2

mEphA7 = target: T6, mEphA7 (mouse, UniProt Q61772); experiment: as above
T6 construct: part of an Fc fusion; also called rmuEphA7-Fc
T6 sequence (receptor-Fc fusion, looked up): T2 sequence (receptor-Fc fusion, looked up)
Experimental: as §2

[7] = target: T7, Human EphA4-His fusion protein (human, UniProt P54764 20-547); experiment: BIAcore, IgG immobilized on the sensor chip, EphA4-his as analyte; comment on the sheet: marginal fit
T7 construct: also called rhuEphA4-His; not shown: Histidine tag
Experimental: (§3) FIG. 15A-15B. […] Binding affinities were measured using the BIAcore assay. […] Variant kinetic measurements for human EphA4 and were obtained using BIAcore with immobilized variant antibodies and human EphA4-Fc and EphA4-His as analytes.

[8] = target: T8, Human EphA4-Fc fusion protein (human, UniProt P54764 20-547); experiment: BIAcore, IgG immobilized on the sensor chip, EphA4-Fc as analyte; comment on the sheet: marginal kinetic fit
T8 construct: not shown: Fc portion of a human IgG1
Experimental: as §3

[9] = target: T8, Human EphA4-Fc fusion protein; experiment: BIAcore, IgG immobilized on the sensor chip, EphA4-Fc as analyte
Experimental: as §3

r murine EphA8 [10] = target: T9, r murine EphA8 (mouse, UniProt O09127); experiment: Activity ELISA, receptor coated on the plate, purified IgG, anti-human kappa-HRP, OD 450 nm
T9 construct: recombinant soluble protein coated on the plate; also called mEphA8; rEphA8
T9 sequence (receptor construct, looked up): T3 sequence (receptor, looked up)
Experimental: as §2

T1 sequence (Q03137 20-547 limits assumed): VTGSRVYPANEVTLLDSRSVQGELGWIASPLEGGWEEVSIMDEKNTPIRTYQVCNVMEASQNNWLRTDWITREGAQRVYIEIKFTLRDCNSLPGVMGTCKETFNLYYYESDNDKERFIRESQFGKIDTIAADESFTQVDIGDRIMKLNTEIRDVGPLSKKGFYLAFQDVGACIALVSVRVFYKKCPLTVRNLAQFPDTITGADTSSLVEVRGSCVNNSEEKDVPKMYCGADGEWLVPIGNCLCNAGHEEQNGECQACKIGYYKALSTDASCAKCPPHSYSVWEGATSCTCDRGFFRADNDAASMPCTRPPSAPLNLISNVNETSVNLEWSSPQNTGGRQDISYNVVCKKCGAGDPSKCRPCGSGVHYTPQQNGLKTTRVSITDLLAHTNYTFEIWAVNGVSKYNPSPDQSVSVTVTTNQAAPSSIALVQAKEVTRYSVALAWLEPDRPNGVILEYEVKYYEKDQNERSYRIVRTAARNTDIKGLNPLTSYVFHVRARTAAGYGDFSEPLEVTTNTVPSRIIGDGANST
T7 sequence (P54764 20-547): as the sequence (Q03137 20-547 limits assumed) above, with A59P, S121N, G124V, Q250R, N251S, S270T, R378K, S406N counted along it
T8 sequence (P54764 20-547): as the sequence (Q03137 20-547 limits assumed) above, with A59P, S121N, G124V, Q250R, N251S, S270T, R378K, S406N counted along it
T5 sequence (Q03137 20-547 limits assumed): as the sequence (Q03137 20-547 limits assumed) above
T4 sequence (P54764 20-547 limits assumed): as the sequence (Q03137 20-547 limits assumed) above, with A59P, S121N, G124V, Q250R, N251S, S270T, R378K, S406N counted along it
Chain of mEph A2 (Q03145 26-535 limits assumed): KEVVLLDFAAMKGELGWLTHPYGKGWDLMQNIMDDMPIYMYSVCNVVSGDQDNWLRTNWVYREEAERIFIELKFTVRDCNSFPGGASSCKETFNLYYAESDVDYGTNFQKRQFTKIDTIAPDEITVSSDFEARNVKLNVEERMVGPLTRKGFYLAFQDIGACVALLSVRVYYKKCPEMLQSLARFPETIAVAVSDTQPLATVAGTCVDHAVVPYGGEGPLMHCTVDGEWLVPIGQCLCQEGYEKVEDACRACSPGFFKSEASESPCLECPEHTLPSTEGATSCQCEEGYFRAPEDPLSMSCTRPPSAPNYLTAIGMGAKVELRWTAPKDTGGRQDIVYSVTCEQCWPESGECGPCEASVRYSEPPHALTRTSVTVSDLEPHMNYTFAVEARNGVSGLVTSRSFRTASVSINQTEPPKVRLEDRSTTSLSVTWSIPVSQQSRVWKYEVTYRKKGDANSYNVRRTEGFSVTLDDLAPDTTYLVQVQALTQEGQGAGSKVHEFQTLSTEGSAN

B1: 1D3 (antibody, V domains shown)
VH: EVQLLESGGGLVQPGGSLRLSCAASGFTFSPYDMLWVRQAPGKGLEWVSRIGSSGGYTKYADSVKGRFTISRDNSKNTLYLQMNSLRAEDTAVYYCARARSVVVSSDAFDIWGQGTMVTVSS
VL: DIQMTQSPSSVSASVGDRVTITCRASQGISKWLAWYQQKPGKAPKLLIFGASTLQSGVPSKFSGSKSGTDFTLTISSLQPEDSATYYCQQYNDYPLTFGGGTKVEIK
In the case of B1, the “ELISA O.D. value” (mEph A2) is reported as 0.316.

B2: 2C9 Fab (affinity optimized combinatorial variant of Fab20) (Fab, V domains shown)
VH: QVQLLQSGAEVKKPGASVKVPCKASGYTFTSRAMSWVRQAPGQGLEWMGWINTNTGNPTYAQGFTGRFVFSLDTSVSTAYLQISSLKAEDTAVYYCARVRFTVYGDGMDVWGQGTLVTVSS
VL: EIVLTQSPATLSVSPGERATLSCRASQSVSSNLAWYQQKPGQAPRLLIYGASTRPTGIPDRFSASGSGTDFTLTISRVEPEDFAVYYCQQYGPSWTFGQGTKVEIK
B2: binds (r murine EphA4 [1]); binds (r murine EphA7 [2]); binds (r murine EphA8 [3]).

B3: 11G6 Fab (affinity optimized CDR3 heavy variant of Fab20) (Fab, V domains shown)
VH: B2 VH with R32Y
VL: B2 VL with P55A, P93S
B3 was tested, and the “fold increase in affinity over Fab20 parental background” value [4] was 1.6 fold.

B4: 1B10 IgG1 (affinity optimized combinatorial variant of mAb GEA44 in human IgG1 format) (antibody, V domains shown)
VH: B2 VH
VL: B2 VL with L33P, R54W, P55A
B4: binds (r murine EphA4 [5]); binds (r murine EphA7 [6]); binds (mEphA4). The binding result (mEphA7) was “binds”, the Kd [7] was 1 nM and the koff [7] was 0.000602 s⁻¹. It also gave a kon [7] of 600000 M⁻¹ s⁻¹, a Kd [8] of 0.023 nM and a koff [8] of 5.41e-05 s⁻¹. It also gave a kon [8] of 2.33e+06 M⁻¹ s⁻¹.

B5: 11H1 Fab (single-change CDR3 heavy variant of Fab20) (Fab, V domains shown)
VH: B2 VH with R32Y, F101L
VL: B2 VL with P55A, P93S
notes: also called GEA44 derivative 11H1
With B5 the “fold increase in affinity over Fab20 parental background” value [4] was 1.4 fold.

B6: 2C9 IgG1 (affinity optimized combinatorial variant of mAb GEA44 in human IgG1 format) (antibody, V domains shown)
VH: B2 VH
VL: B2 VL
For B6, the binding result (r murine EphA4 [5]) was “binds”, the binding result (r murine EphA7 [6]) was “binds” and the Kd [9] was 0.044 nM. For the same binder, the koff [9] was 1.91e-05 s⁻¹, the kon [9] was 434000 M⁻¹ s⁻¹ and the binding result (mEphA4) was “binds”. B6: binds (mEphA7); binds (r murine EphA8 [10]).
